Reference: patent US20240317834A1, “COMPOSITIONS AND METHODS FOR NEUROLOGICAL DISEASES” (CODA BIOTHERAPEUTICS, INC., priority 2020, published 2024)

Columns and labels:
rat DRG neurons = assay: Rheobase shift and evoked action potentials in rat DRG neurons (current clamp); type: cell-based
Protocol: Using whole cell manual patch clamp electrophysiology in HEK293 cells, rat DRG neurons and rat hippocampal neurons, the EC50 of the various engineered receptors disclosed herein to Ach and non-native ligands was measured using the Hill equation with peak current measurements from escalating doses of ligand. The rheobase shift was also measured in rat DRG neurons, which reflects the efficacy of the receptors. To calculate the rheobase, first, the amount of current that can produce an action potential was determined. Then the ligand was added, followed by a step wise increase in the current injected up to 700 pA.
For manual patch clamp experiments, Cells plated on coverslips were visualized at 10× and 40× on an inverted fluorescence microscope (Olympus). Recordings were made with an Axopatch 200B amplifier and Digidata 1550B (Molecular Devices) at RT using 3-6 MOhm glass patch electrodes (Sutter, BF150-86-10). Unless otherwise stated, recordings were made in extracellular solution (ECS) containing: 140 mM sodium chloride, 4 mM potassium chloride, 1 mM magnesium chloride, 2 mM calcium chloride, 10 mM HEPES, and 10 mM D-(+)-glucose (pH=7.3 with sodium hydroxide, osmolarity=305−315 mOsm). An 8-line reservoir (AutoMate Scientific) in combination with an 8-channel zero-dead-volume perfusion pencil (AutoMate Scientific) was used for perfusion. Data was acquired using pClamp software (Molecular Devices). Traces were either analyzed in Clampfit (Molecular Devices) or using custom Python code. Plotting and statistics were performed in GraphPad Prism.
DRG rheobase experiments were performed in current clamp mode using a potassium-based internal solution containing: 100 mM potassium D-gluconate, 28 mM potassium chloride, 1 mM magnesium chloride hexahydrate, 5 mM magnesium ATP, 10 mM HEPES, and 0.5 mM EGTA (pH=7.2 with potassium hydroxide, osmolarity=290-295 mOsm, calculated liquid junction potential=−13.5 mV). To measure DRG input resistance and rheobase, 500 ms current steps (−200 pA to 700 pA) were applied the membrane in the presence and absence of a compound. No holding current was applied to the membrane for cells included in the final datasets. Data were acquired at 10 kHz, with Bessel filter at 2 kHz and series resistance compensation at 100%. Rheobase was defined as the smallest depolarizing current injection required to cause an action potential to fire in the cell. In a subset of cells, the rheobase was ambiguous, since the action potential appeared to be graded in amplitude. In these cases, a […] of the trace clarified the rheobase. Input resistance was measured from the negative current injections, calculated as the difference in membrane potential at steady state divided by the current injection amplitude and then averaged across the four negative current steps for each recording. Resting membrane potential was measured from the first 100 ms of each sweep, averaged for each recording, and corrected for liquid junction potential. One-way ANOVA with multiple comparisons was used to test for significance of difference in rheobase and input resistance between baseline, drug, and wash conditions.

Lenti-X 293T cells = assay: YFP fluorescence quenching anion reporter plate reader assay of engineered receptors stimulated with acetylcholine or a non-native ligand; type: cell-based
Procedure, shortened: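 Lenti-X 293T cells carrying a YFP anion reporter were transiently transfected with channel DNA and assayed the next day in HEPES-buffered ECS at pH 7.2. Ligand (acetylcholine or non-native ligand) was added in NaI-substituted ECS. Percent quench was the mean of the last 10 s relative to the 15 s pre-addition baseline.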

B1: CODA1039: engineered chimeric LGIC receptor, Y115E, Y210W in SEQ ID NO: 33 (protein)
chain: MRCSPGGVWLALAASLLHVSLQGEFQRKLYKELVKNYNPLERPVANDSQPLTVYFSLSLLQIMDVDEKNQVLTTNIWLQMSWTDHYLQWNVSEYPGVKTVRFPDGQIWKPDILLENSADERFDATFHTNVLVNSSGHCQYLPPGIFKSSCPMDLKNFPMDVQTCKLKFGSWSYGGWSLDLQMQEADISGYIPNGEWDLVGIPGKRSERFWECCKEPYPDVTFTVTMRRRMGYYLIQMYIPSLLIVILSWISFWINMDAAPARVGLGITTVLTMTTQSSGSRASLPKVSYVKAIDIWMAVCLLFVFSALLEYAAVNFVSRQHKELLRFRRKRRHHKSPMLNLFQEDEAGEGRFNFSAYGMGPACLQAKDGISVKGANNSNTTNPPPAPSKSPEEMRKLFIQRAKKIDKISRIGFPMAFLIFNMFYWIIYKIVRREDVHNQ
modifications: synthetic sequence of chimeric LGIC
With B1 as the molecule, how does the “Rheobase Shift; Rat DRG Neurons, +TC-5619 @ EC90” value (rat DRG neurons; +TC-5619 @ EC90) read?
Its value is 453 ± 58 pA.

And the “Rheobase Shift; Rat DRG Neurons, Baseline” value (rat DRG neurons; Baseline, no ligand)?
The value was 88 ± 9 pA.

And the “YFP fluorescence quenching using CNL001” value (Lenti-X 293T cells; 1 nM CNL001, first column)?
Its value is −1.12%.

And the “YFP fluorescence quenching using CNL001” value (Lenti-X 293T cells; 1 nM CNL001, second column)?
Its value is −3.941%.

What about the “YFP fluorescence quenching using TC-5619/Bradanicline” value (Lenti-X 293T cells; 1 nM brd) of the same molecule?
Its value is −5.55%.

What about the “YFP fluorescence quenching using TC-5619/Bradanicline” value (Lenti-X 293T cells; 3 nM brd) of the same molecule?
The value was 6.78%.

And the “YFP fluorescence quenching using Varenicline” value (Lenti-X 293T cells; 3 nM var, first column)?
Its value is −10.926.

What about the “YFP fluorescence quenching using Varenicline” value (Lenti-X 293T cells; 3 nM var, second column) of the same molecule?
Its value is −7.395.

And the “YFP fluorescence quenching using CNL001” value (Lenti-X 293T cells; 10 nM CNL001, first column)?
Its value is 6.275%.

What about the “YFP fluorescence quenching using CNL001” value (Lenti-X 293T cells; 10 nM CNL001, second column) of the same molecule?
Its value is 11.943%.

And the “YFP fluorescence quenching using TC-5619/Bradanicline” value (Lenti-X 293T cells; 10 nM brd)?
The value was −2.7%.

What about the “YFP fluorescence quenching using TC-5619/Bradanicline” value (Lenti-X 293T cells; 30 nM brd) of the same molecule?
Its value is 34.43%.

What about the “YFP fluorescence quenching using Facinicline” value (Lenti-X 293T cells; 30 nM fac) of the same molecule?
Its value is −13.46.

What about the “YFP fluorescence quenching using Varenicline” value (Lenti-X 293T cells; 30 nM var, first column) of the same molecule?
Its value is −5.661.

What about the “YFP fluorescence quenching using Varenicline” value (Lenti-X 293T cells; 30 nM var, second column) of the same molecule?
The value was −1.244.

And the “YFP fluorescence quenching using CNL001” value (Lenti-X 293T cells; 50 nM CNL001, first column)?
The value was 12.949%.

And the “YFP fluorescence quenching using CNL001” value (Lenti-X 293T cells; 50 nM CNL001, second column)?
The value was 18.635%.

What about the “YFP fluorescence quenching using ABT-126” value (Lenti-X 293T cells; 50 nM abt) of the same molecule?
Its value is −17.32%.

And the “YFP fluorescence quenching using CNL001” value (Lenti-X 293T cells; 100 nM CNL001, first column)?
The value was 17.576%.

And the “YFP fluorescence quenching using CNL001” value (Lenti-X 293T cells; 100 nM CNL001, second column)?
Its value is 18.319%.

And the “YFP fluorescence quenching using CNL002” value (Lenti-X 293T cells; 100 nM CNL002)?
The value was 21.85%.

And the “YFP fluorescence quenching using ABT-126” value (Lenti-X 293T cells; 100 nM abt)?
The value was −13.93%.

And the “YFP fluorescence quenching using AZD-0328” value (Lenti-X 293T cells; 100 nM azd0328)?
Its value is −10.45%.

What about the “YFP fluorescence quenching using ABT-126” value (Lenti-X 293T cells; 300 nM abt) of the same molecule?
The value was 9.9%.

What about the “YFP fluorescence quenching using AZD-0328” value (Lenti-X 293T cells; 300 nM azd0328) of the same molecule?
The value was −13%.

What about the “YFP fluorescence quenching using TC-5619/Bradanicline” value (Lenti-X 293T cells; 300 nM brd) of the same molecule?
Its value is 70.05%.

And the “YFP fluorescence quenching using Facinicline” value (Lenti-X 293T cells; 300 nM fac)?
The value was 5.43.

And the “YFP fluorescence quenching using Varenicline” value (Lenti-X 293T cells; 300 nM var, first column)?
The value was −4.555.

What about the “YFP fluorescence quenching using Varenicline” value (Lenti-X 293T cells; 300 nM var, second column) of the same molecule?
The value was 1.081.

And the “YFP fluorescence quenching using ABT-126” value (Lenti-X 293T cells; 500 nM abt)?
Its value is 36.97%.

What about the “YFP fluorescence quenching using Varenicline” value (Lenti-X 293T cells; 500 nM var, first column) of the same molecule?
The value was 9.172.

And the “YFP fluorescence quenching using Varenicline” value (Lenti-X 293T cells; 500 nM var, second column)?
Its value is 12.561.

And the “YFP fluorescence quenching using CNL001” value (Lenti-X 293T cells; 1 uM CNL001, first column)?
The value was 19.329%.

And the “YFP fluorescence quenching using CNL001” value (Lenti-X 293T cells; 1 uM CNL001, second column)?
The value was 20.672%.

And the “YFP fluorescence quenching using CNL002” value (Lenti-X 293T cells; 1 uM CNL002)?
The value was 47.37%.

And the “YFP fluorescence quenching using ABT-126” value (Lenti-X 293T cells; 1 uM abt)?
The value was 48.37%.

And the “YFP fluorescence quenching using TC-6987” value (Lenti-X 293T cells; 1 uM tc6987)?
Its value is 7.26.

What about the “YFP fluorescence quenching using Varenicline” value (Lenti-X 293T cells; 1 uM var, first column) of the same molecule?
Its value is 7.139.

What about the “YFP fluorescence quenching using Varenicline” value (Lenti-X 293T cells; 1 uM var, second column) of the same molecule?
The value was 12.664.

What about the “YFP fluorescence quenching using ABT-126” value (Lenti-X 293T cells; 3 uM abt) of the same molecule?
The value was 50.5%.

And the “YFP fluorescence quenching using ABT-126” value (Lenti-X 293T cells; 10 uM abt)?
The value was 58.13%.

And the “YFP fluorescence quenching using TC-6987” value (Lenti-X 293T cells; 10 uM tc6987)?
Its value is 11.

And the “YFP fluorescence quenching using CNL002” value (Lenti-X 293T cells; 30 uM CNL002)?
Its value is 59.97%.

What about the “YFP fluorescence quenching using ABT-126” value (Lenti-X 293T cells; 30 uM abt) of the same molecule?
Its value is 64.1%.

What about the “YFP fluorescence quenching using AZD-0328” value (Lenti-X 293T cells; 30 uM azd0328) of the same molecule?
Its value is 30.76%.

What about the “YFP fluorescence quenching using Facinicline” value (Lenti-X 293T cells; 30 uM fac) of the same molecule?
Its value is 49.06.

And the “YFP fluorescence quenching using ABT-126” value (Lenti-X 293T cells; 50 uM abt)?
Its value is 66.67%.

What about the “YFP fluorescence quenching using ABT-126” value (Lenti-X 293T cells; 100 uM abt) of the same molecule?
The value was 68.63%.

What about the “YFP fluorescence quenching using TC-6987” value (Lenti-X 293T cells; 500 uM tc6987) of the same molecule?
Its value is 7.97.

And the “percent quench of YFP fluorescence, 30 nM TC-6683” value (Lenti-X 293T cells; TC-6683 30 nM)?
The value was −1.608%.

And the “percent quench of YFP fluorescence, 300 nM TC-6683” value (Lenti-X 293T cells; TC-6683 300 nM)?
The value was −3.491%.

What about the “percent quench of YFP fluorescence, 3 uM TC-6683” value (Lenti-X 293T cells; TC-6683 3 uM) of the same molecule?
The value was −6.153%.

What about the “percent quench of YFP fluorescence, 30 uM TC-6683” value (Lenti-X 293T cells; TC-6683 30 uM) of the same molecule?
The value was −9.263%.

And the “percent quench of YFP fluorescence, 100 uM TC-6683” value (Lenti-X 293T cells; TC-6683 100 uM)?
Its value is −9.19%.

And the “percent quench of YFP fluorescence, 10 uM ach” value (Lenti-X 293T cells; acetylcholine 10 uM)?
The value was −2.97%.

And the “percent quench of YFP fluorescence, 50 uM ach” value (Lenti-X 293T cells; acetylcholine 50 uM)?
The value was −3.94%.

And the “percent quench of YFP fluorescence, 100 uM ach” value (Lenti-X 293T cells; acetylcholine 100 uM)?
The value was 0.35%.

What about the “percent quench of YFP fluorescence, 300 uM ach” value (Lenti-X 293T cells; acetylcholine 300 uM) of the same molecule?
Its value is −4.13%.

And the “percent quench of YFP fluorescence, 500 uM ach” value (Lenti-X 293T cells; acetylcholine 500 uM)?
Its value is −5.18%.

What about the “percent quench of YFP fluorescence, 1 mM ach” value (Lenti-X 293T cells; acetylcholine 1 mM) of the same molecule?
The value was 1.21%.

What about the “percent quench of YFP fluorescence, 3 mM ach” value (Lenti-X 293T cells; acetylcholine 3 mM) of the same molecule?
Its value is 26.69%.
